Measured values reported in paper PMC8345934, “Biochemical Studies of Mitochondrial Malate: Quinone Oxidoreductase from Toxoplasma gondii” (International Journal of Molecular Sciences, 2021).

T1: malate:quinone oxidoreductase (TgMQO) (Toxoplasma gondii, UniProt Q1KSF3)
T1 construct: gene mqo; lacking the mitochondrial targeting signal (Δ1-37 residues), His-tag purified
T1 sequence (Q1KSF3 38-549): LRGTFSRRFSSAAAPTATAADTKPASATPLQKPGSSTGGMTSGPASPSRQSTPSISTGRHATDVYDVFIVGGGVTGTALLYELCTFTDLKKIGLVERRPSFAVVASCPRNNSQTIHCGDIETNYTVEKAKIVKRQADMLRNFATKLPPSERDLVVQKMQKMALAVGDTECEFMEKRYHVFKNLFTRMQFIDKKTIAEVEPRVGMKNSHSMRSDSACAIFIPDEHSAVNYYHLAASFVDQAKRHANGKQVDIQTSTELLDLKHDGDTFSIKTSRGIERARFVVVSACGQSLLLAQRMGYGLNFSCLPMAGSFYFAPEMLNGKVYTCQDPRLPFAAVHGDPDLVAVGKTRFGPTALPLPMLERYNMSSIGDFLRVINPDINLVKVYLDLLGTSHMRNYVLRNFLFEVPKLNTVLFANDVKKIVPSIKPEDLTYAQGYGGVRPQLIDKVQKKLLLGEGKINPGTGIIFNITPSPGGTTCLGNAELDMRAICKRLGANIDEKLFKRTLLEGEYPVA

B1: malate:quinone oxidoreductase (TgMQO) (Toxoplasma gondii) (protein)
chain: T1 sequence (Q1KSF3 38-549)

Tests used:
[1] = target: T1, malate:quinone oxidoreductase (TgMQO); test: spectrophotometric dUQ reduction at […] nm, purified recombinant enzyme; format: biochemical
[2] = substrate: COC1=C(OC)C(=O)C(CC=C(C)C)=C(C)C1=O; test: purified protein; settings: FAD ubiquinone binding site
[3] = substrate: O=C(O)C[C@H](O)C(=O)O; test: purified protein; settings: FAD malate binding site
[4] = substrate: COC1=C(OC)C(=O)C(C/C=C(\C)CC/C=C(\C)CC/C=C(\C)CC/C=C(\C)CC/C=C(\C)CCC=C(C)C)=C(C)C1=O; test: purified protein; settings: FAD ubiquinone binding site
[5] = substrate: CCCCCCCCCCC1=C(C)C(=O)C(OC)=C(OC)C1=O; test: purified protein; settings: FAD ubiquinone binding site
[6] = substrate: COC1=C(OC)C(=O)C(C/C=C(\C)CCC=C(C)C)=C(C)C1=O; test: purified protein; settings: FAD ubiquinone binding site
[7] = substrate: COC1=C(OC)C(=O)C(C/C=C(\C)CC/C=C(\C)CC/C=C(\C)CCC=C(C)C)=C(C)C1=O; test: purified protein; settings: FAD ubiquinone binding site
[8] = substrate: COC1=C(OC)C(=O)C(C)=CC1=O; test: purified protein; settings: FAD ubiquinone binding site

| Molecule | IC50 [1] | Km [2] | Vmax [2] | Km [3] | Vmax [3] | Km [4] | Vmax [4] | Km [5] | Vmax [5] | Km [6] | Vmax [6] | Km [7] | Vmax [7] | Km [8] | Vmax [8] |
| --- | --- | --- | --- | --- | --- | --- | --- | --- | --- | --- | --- | --- | --- | --- | --- |
| CC(C)=CCC/C(C)=C/CC/C(C)=C/Cc1c(O)c2ccccc2oc1=O [Ferulenol] | 822 ± 151 nM | – | – | – | – | – | – | – | – | – | – | – | – | – | – |
| B1 | – | 116 ± 16 µM | 44.2 µmol/min/mg | 370 ± 140 µM | 6.3 µmol/min/mg | 8.0 ± 3.3 µM | 3.64 µmol/min/mg | 17 ± 4.7 µM | 12.1 µmol/min/mg | 13.2 µM | 45.1 µmol/min/mg | 7.7 ± 4.3 µM | 4.39 µmol/min/mg | 225 ± 77 µM | 12.7 µmol/min/mg |
